Assay results published in patent US20180045721A1.

Target: streptavidin, P22629
Assay: SPR, BIAcore X100, streptavidin coupled to the chip, peptide in solution

streptavidin, P22629, sequence (P22629 37-163 limits assumed): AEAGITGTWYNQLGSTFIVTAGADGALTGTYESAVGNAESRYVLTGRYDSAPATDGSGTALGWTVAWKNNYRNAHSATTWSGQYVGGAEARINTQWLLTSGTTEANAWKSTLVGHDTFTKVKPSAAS

| Binder | Kd |
| --- | --- |
| NQPWQ (modifications not checked) [head-to-tail cyclic NQpWQ peptide] | 61.3 µM |
| LYDHPQNGGQ (modifications not checked) | 9.4 µM |
| QNDHPQNGGQ (modifications not checked) | 10.8 µM |

Next, values leading:

| Kd | Binder |
| --- | --- |
| 100 µM | H-LYDHPQNGGQ-OH |
| 320 µM | H-QNDHPQNGGQ-OH |
